Source: IntAct's records for PubMed 31515488

B1: Microtubule-associated tumor suppressor candidate 2 (Homo sapiens), Q5JR59-3 (parent)
chain: MGHCCCKPYNCLQCLDKTNESALVKEKELSIELANIRDEVAFHTAKCEKLQKEKEELERRFEDEVKRLGWQQQAELQELEERLQLQFEAEMARLQEEHGDQLLSIRCQHQEQVEDLTASHDAALLEMENNHTVAITILQDDHDHKVQELMSTHELEKKELEENFEKLRLSLQDQVDTLTFQSQSLRDRARRFEEALRKNTEEQLEIALAPYQHLEEDMKSLKQVLEMKNQQIHEQEKKILELEKLAEKNIILEEKIQVLQQQNEDLKARIDQNTVVTRQLSEENANLQEYVEKETQEKKRLSRTNEELLWKLQTGDPTSPIKLSPTSPVYRGSSSGPSSPARVSTTPR
partner: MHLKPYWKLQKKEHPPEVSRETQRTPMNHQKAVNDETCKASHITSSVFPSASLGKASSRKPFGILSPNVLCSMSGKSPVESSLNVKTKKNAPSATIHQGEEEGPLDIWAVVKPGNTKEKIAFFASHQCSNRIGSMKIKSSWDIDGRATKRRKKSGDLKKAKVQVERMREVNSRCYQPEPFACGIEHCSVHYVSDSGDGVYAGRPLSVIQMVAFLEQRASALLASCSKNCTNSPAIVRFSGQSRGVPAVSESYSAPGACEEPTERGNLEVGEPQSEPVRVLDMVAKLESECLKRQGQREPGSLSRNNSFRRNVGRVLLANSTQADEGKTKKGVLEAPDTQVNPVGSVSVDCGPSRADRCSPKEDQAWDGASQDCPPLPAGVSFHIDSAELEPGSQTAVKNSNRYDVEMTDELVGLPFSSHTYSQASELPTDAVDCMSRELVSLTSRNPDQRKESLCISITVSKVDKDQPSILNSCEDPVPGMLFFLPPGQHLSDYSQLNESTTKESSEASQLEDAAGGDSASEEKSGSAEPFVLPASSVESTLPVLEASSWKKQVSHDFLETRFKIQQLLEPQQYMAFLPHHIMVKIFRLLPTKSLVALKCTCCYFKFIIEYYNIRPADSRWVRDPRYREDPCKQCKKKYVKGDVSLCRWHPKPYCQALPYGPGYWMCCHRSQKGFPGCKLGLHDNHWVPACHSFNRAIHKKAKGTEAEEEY
B2: Isoform 1 of 1-aminocyclopropane-1-carboxylate synthase-like protein 1 (Homo sapiens), Q96QU6-1 (parent)
chain: MFTLPQKDFRAPTTCLGPTCMQDLGSSHGEDLEGECSRKLDQKLPELRGVGDPAMISSDTSYLSSRGRMIKWFWDSAEEGYRTYHMDEYDEDKNPSGIINLGTSENKLCFDLLSWRLSQRDMQRVEPSLLQYADWRGHLFLREEVAKFLSFYCKSPVPLRPENVVVLNGGASLFSALATVLCEAGEAFLIPTPYYGAITQHVCLYGNIRLAYVYLDSEVTGLDTRPFQLTVEKLEMALREAHSEGVKVKGLILISPQNPLGDVYSPEELQEYLVFAKRHRLHVIVDEVYMLSVFEKSVGYRSVLSLERLPDPQRTHVMWATSKDFGMSGLRFGTLYTENQDVATAVASLCRYHGLSGLVQYQMAQLLRDRDWINQVYLPENHARLKAAHTYVSEELRALGIPFLSRGAGFFIWVDLRKYLPKGTFEEEMLLWRRFLDNKVLLSFGKAFECKEPGWFRFVFSDQVHRLCLGMQRVQQVLAGKSQVAEDPRPSQSQEPSDQRR
partner: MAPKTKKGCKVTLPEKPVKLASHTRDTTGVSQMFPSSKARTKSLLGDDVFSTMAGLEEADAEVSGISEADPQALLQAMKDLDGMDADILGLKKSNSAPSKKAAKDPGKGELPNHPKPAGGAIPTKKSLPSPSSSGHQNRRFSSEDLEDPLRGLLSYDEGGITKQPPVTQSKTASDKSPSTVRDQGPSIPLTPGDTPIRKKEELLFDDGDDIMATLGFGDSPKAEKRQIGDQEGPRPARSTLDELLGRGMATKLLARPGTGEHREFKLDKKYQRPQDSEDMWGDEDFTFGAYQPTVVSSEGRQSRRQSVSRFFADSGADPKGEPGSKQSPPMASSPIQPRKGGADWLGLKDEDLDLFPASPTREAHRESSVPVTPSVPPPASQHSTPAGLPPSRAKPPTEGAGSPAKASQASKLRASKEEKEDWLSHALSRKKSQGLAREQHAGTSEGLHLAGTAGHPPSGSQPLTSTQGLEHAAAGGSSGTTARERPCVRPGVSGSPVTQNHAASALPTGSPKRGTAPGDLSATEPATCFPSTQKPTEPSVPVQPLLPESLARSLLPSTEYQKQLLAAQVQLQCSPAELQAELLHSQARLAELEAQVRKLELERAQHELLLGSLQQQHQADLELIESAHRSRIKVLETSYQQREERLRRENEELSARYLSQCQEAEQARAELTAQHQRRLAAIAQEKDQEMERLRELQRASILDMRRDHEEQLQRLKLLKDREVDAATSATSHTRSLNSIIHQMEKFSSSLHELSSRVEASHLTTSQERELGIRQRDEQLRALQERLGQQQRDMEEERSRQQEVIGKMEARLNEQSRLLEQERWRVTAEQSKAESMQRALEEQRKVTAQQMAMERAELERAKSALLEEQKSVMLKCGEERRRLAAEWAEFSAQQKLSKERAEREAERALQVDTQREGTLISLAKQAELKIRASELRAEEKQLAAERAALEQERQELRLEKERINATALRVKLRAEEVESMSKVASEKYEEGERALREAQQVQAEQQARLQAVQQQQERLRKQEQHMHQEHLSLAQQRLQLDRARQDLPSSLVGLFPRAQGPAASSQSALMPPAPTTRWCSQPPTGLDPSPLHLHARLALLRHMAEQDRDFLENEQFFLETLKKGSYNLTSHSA
B3: "Peptide-N(4)-(N-acetyl-beta-glucosaminyl)asparagine amidase" (Homo sapiens), Q96IV0 (parent)
chain: MAAAALGSSSGSASPAVAELCQNTPETFLEASKLLLTYADNILRNPNDEKYRSIRIGNTAFSTRLLPVRGAVECLFEMGFEEGETHLIFPKKASVEQLQKIRDLIAIERSSRLDGSNKSHKVKSSQQPAASTQLPTTPSSNPSGLNQHTRNRQGQSSDPPSASTVAADSAILEVLQSNIQHVLVYENPALQEKALACIPVQELKRKSQEKLSRARKLDKGINISDEDFLLLELLHWFKEEFFHWVNNVLCSKCGGQTRSRDRSLLPSDDELKWGAKEVEDHYCDACQFSNRFPRYNNPEKLLETRCGRCGEWANCFTLCCRAVGFEARYVWDYTDHVWTEVYSPSQQRWLHCDACEDVCDKPLLYEIGWGKKLSYVIAFSKDEVVDVTWRYSCKHEEVIARRTKVKEALLRDTINGLNKQRQLFLSENRRKELLQRIIVELVEFISPKTPKPGELGGRISGSVAWRVARGEMGLQRKETLFIPCENEKISKQLHLCYNIVKDRYVRVSNNNQTISGWENGVWKMESIFRKVETDWHMVYLARKEGSSFAYISWKFECGSVGLKVDSISIRTSSQTFQTGTVEWKLRSDTAQVELTGDNSLHSYADFSGATEVILEAELSRGDGDVAWQHTQLFRQSLNDHEENCLEIIIKFSDL
B4: TBC1 domain family member 7 (Homo sapiens), Q9P0N9 (parent)
chain: MTEDSQRNFRSVYYEKVGFRGVEEKKSLEILLKDDRLDTEKLCTFSQRFPLPSMYRALVWKVLLGILPPHHESHAKVMMYRKEQYLDVLHALKVVRFVSDATPQAEVYLRMYQLESGKLPRSPSFPLEPDDEVFLAIAKAMEEMVEDSVDCYWITRRFVNQLNTKYRDSLPQLPKAFEQYLNLEDGRLLTHLRMCSAAPKLPYDLWFKRCFAGCLPESSLQRVWDKVVSGSCKILVFVAVEILLTFKIKVMALNSAEKITKFLENIPQDSSDAIVSKAIDLWHKHCGTPVHSS
partner: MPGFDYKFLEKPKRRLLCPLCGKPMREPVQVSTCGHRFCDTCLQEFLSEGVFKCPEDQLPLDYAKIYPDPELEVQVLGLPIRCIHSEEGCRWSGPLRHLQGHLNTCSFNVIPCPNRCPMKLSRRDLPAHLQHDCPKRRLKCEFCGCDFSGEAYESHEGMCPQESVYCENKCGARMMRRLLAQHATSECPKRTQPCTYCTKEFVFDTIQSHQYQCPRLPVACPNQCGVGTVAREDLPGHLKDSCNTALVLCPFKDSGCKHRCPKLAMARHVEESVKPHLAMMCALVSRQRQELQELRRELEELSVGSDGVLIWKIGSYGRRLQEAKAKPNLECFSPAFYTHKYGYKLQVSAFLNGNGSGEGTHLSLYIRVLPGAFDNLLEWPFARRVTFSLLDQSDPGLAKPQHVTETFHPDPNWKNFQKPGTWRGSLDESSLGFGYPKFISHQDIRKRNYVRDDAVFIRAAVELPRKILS
B5: Myogenin (Homo sapiens), P15173 (parent)
chain: MELYETSPYFYQEPRFYDGENYLPVHLQGFEPPGYERTELTLSPEAPGPLEDKGLGTPEHCPGQCLPWACKVCKRKSVSVDRRRAATLREKRRLKKVNEAFEALKRSTLLNPNQRLPKVEILRSAIQYIERLQALLSSLNQEERDLRYRGGGGPQPGVPSECSSHSASCSPEWGSALEFSANPGDHLLTADPTDAHNLHSLTSIVDSITVEDVSVAFPDETMPN
B6: Isoform 1 of Mothers against decapentaplegic homolog 3 (Homo sapiens), P84022-1 (parent)
chain: MSSILPFTPPIVKRLLGWKKGEQNGQEEKWCEKAVKSLVKKLKKTGQLDELEKAITTQNVNTKCITIPRSLDGRLQVSHRKGLPHVIYCRLWRWPDLHSHHELRAMELCEFAFNMKKDEVCVNPYHYQRVETPVLPPVLVPRHTEIPAEFPPLDDYSHSIPENTNFPAGIEPQSNIPETPPPGYLSEDGETSDHQMNHSMDAGSPNLSPNPMSPAHNNLDLQPVTYCEPAFWCSISYYELNQRVGETFHASQPSMTVDGFTDPSNSERFCLGLLSNVNRNAAVELTRRHIGRGVRLYYIGGEVFAECLSDSAIFVQSPNCNQRYGWHPATVCKIPPGCNLKIFNNQEFAALLAQSVNQGFEAVYQLTRMCTIRMSFVKGWGAEYRRQTVTSTPCWIELHLNGPLQWLDKVLTQMGSPSIRCSSVS
partner: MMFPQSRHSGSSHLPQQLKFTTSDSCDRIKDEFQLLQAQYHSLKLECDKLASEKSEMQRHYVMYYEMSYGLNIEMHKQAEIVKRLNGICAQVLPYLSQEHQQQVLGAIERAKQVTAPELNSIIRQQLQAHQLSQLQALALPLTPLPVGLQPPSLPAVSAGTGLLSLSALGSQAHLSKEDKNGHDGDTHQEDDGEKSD

Variants of: B1
Conditions: with fbx34_human FBXO34, Q9NWN3

effect of a mutation on the interaction	Variant
with no effect	A89V

Variants of: B2
Conditions: with fbf1_human FBF1, Q8TES7

effect of a mutation on the interaction	Variant
with no effect	S393L

Variants of: B2
Conditions: with fbf1_human FBF1, Q8TES7
Remark: another data set of the same source

effect of a mutation on the interaction	Variant
with no effect	D59N

Variants of: B3
Conditions: with ubql1_human UBQLN1, Q9UMX0
Sequence of ubql1_human UBQLN1, Q9UMX0 (Q9UMX0 whole entry): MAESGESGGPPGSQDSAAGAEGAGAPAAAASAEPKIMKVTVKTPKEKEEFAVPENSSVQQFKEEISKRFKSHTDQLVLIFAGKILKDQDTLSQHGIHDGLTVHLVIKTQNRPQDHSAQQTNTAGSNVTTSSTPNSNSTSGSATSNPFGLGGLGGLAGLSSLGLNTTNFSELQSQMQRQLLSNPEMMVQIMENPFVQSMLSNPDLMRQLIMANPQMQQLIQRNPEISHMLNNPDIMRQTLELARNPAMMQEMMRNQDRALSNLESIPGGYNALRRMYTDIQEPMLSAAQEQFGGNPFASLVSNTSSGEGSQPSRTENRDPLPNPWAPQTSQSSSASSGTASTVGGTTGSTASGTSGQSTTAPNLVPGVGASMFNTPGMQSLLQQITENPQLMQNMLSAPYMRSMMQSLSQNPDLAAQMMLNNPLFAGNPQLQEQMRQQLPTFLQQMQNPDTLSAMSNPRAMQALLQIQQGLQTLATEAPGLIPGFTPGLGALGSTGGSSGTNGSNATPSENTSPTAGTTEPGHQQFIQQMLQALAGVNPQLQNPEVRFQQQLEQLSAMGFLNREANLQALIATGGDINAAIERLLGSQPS

effect of a mutation on the interaction	Variant
with no effect	V184F
with no effect	F292L

Variants of: B3
Conditions: with gucd1_human GUCD1, Q96NT3
Sequence of gucd1_human GUCD1, Q96NT3 (Q96NT3 whole entry): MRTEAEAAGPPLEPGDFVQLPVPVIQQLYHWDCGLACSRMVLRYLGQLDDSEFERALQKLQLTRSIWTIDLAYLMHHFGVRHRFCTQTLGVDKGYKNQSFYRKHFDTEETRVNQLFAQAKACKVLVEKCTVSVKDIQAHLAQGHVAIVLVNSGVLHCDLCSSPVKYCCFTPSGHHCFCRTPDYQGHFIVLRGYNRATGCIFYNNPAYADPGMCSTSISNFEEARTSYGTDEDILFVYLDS

effect of a mutation on the interaction	Variant
with no effect	V184F

Variants of: B3
Conditions: with trad1_human TRAFD1, O14545
Sequence of trad1_human TRAFD1, O14545 (O14545 whole entry): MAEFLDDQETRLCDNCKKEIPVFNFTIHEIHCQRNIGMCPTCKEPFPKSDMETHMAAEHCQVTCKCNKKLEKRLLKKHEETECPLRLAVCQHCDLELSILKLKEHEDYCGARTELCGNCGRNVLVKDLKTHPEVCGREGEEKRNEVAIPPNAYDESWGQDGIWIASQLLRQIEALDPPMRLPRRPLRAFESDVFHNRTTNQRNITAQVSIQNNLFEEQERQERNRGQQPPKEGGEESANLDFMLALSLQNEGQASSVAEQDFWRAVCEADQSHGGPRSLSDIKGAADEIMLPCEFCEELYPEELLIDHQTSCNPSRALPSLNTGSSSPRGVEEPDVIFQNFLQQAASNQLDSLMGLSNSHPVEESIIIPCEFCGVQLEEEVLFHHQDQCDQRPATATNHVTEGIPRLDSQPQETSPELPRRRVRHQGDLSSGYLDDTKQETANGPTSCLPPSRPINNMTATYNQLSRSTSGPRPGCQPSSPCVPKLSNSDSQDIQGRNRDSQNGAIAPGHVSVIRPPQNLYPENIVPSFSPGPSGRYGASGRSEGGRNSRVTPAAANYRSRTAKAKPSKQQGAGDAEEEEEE

effect of a mutation on the interaction	Variant
with no effect	V184F
with no effect	F292L

Variants of: B4
Conditions: with traf4_human TRAF4, Q9BUZ4

effect of a mutation on the interaction	Variant
with no effect	L67W

Variants of: B5
Conditions: with fril_human FTL

effect of a mutation on the interaction	Variant
with no effect	P49H

Variants of: B5
Conditions: with if4e2_human EIF4E2, O60573
Sequence of if4e2_human EIF4E2, O60573 (O60573 whole entry): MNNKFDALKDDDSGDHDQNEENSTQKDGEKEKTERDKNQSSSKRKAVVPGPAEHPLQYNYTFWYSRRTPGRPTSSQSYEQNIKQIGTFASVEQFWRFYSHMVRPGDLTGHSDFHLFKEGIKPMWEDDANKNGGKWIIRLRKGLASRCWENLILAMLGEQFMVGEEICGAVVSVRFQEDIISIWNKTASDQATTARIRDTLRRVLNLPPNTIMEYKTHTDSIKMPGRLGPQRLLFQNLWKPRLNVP

effect of a mutation on the interaction	Variant
with no effect	P49H

Variants of: B5
Conditions: with mlh1_human MLH1, P40692
Sequence of mlh1_human MLH1, P40692 (P40692 whole entry): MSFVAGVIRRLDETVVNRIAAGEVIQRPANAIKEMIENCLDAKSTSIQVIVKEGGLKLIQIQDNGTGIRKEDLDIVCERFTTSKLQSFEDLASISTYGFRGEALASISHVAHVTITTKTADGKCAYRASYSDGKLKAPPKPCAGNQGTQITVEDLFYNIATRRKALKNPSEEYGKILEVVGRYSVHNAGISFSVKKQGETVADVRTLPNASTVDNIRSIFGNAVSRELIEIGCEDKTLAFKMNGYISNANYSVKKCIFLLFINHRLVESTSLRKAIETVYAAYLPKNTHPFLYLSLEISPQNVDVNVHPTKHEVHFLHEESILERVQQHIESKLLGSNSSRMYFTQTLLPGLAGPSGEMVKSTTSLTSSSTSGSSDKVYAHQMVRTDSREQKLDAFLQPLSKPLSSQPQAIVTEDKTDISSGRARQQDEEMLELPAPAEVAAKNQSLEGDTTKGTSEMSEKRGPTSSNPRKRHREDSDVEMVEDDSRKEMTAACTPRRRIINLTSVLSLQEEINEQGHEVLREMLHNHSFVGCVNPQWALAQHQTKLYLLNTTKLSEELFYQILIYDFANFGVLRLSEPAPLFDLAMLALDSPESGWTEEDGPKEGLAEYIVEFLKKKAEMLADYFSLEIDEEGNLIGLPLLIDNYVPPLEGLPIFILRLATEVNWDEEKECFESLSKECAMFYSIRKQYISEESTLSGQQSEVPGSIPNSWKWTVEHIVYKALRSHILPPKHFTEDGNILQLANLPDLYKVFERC

effect of a mutation on the interaction	Variant
with no effect	P49H

Variants of: B6
Conditions: with tle5_human TLE5, Q08117

effect of a mutation on the interaction	Variant
disrupting interaction strength	P393L
